Results: patent US9187762B2, “Compositions and methods comprising sequences having hydroxyphenylpyruvate dioxygenase (HPPD) activity” (PIONEER HI-BRED INTERNATIONAL, INC., priority 2010, dated 2015)

Assays:
[1] = test system: maize HPPD; experiment: ON rate ratio, OFF rate ratio and insensitivity parameter with herbicidal HPPD inhibitors; assay type: biochemical
Text: To devise a parameter for detecting changes in inhibitor binding affinity, KD, one can utilize the relationship between KD and the rates of binding and release of inhibitor to and from the enzyme. [formula] Higher KD (reduced affinity or increased insensitivity) can be attained with a numerically smaller ON rate, a larger OFF rate or both. […] The ratio of the reaction rate with inhibitor to that without inhibitor during the 70 to 90 second interval of the reaction was termed the “ON rate ratio”. […] Incubations with the same concentrations of enzyme but no mesotrione were done in parallel. After 1 hr at room temperature, 5 to 10 ul of the enzyme-inhibitor complex was dispensed into the wells of the assay plate. Reactions were started with the addition of 290 to 295 ul of 25 mM Hepes, pH 7, 2 mM ascorbate, 10 uM FeSO4, 100 uM HPP and 50 nM HGD. The reactions were monitored at 320 nm for 12 min. Reaction velocity accelerates as inhibitor is released from the enzyme until a steady state is reached, during which the reaction velocity is constant. The ratio of the steady state rate in mixtures containing mesotrione (or other herbicidal inhibitor) to the initial velocity of mixtures lacking inhibitor is termed the “OFF rate ratio”. Another parameter to record is the time span required for the reactions with inhibitor to reach the steady state. […] It is not certain that the steady state attained in the OFF rate reactions actually represents an equilibrium where OFF rates are now equal to ON rates. Because substrate and inhibitors bind in the same site, the high concentration of substrate present may competitively trap the inhibitor and prevent it from binding again. To be sure that improvement in ON rates is being taken into account, the ON and OFF rate ratios were multiplied together and the product is termed the “insensitivity parameter”. […] The variants in Table 9 were grouped according to the parameter in which they are improved compared to wild type. The sequence positions are numbered according to the wild-type maize amino acid sequence of SEQ ID 1. Some substitutions are effective in multiple contexts, as discussed in the next section.

[2] = test system: maize HPPD; experiment: KD by isothermal titration calorimetry; assay type: binding
Protocol: To verify that the insensitivity parameter reflects improvement (elevation) in KD, KD was directly measured with isothermal titration calorimetry. […] Enzymes were transferred to a matrix of 25 mM Hepes, pH 7, 2 mM ascorbate and 10 uM FeSO4 by gel-filtration chromatography. Mesotrione or tembotrione were diluted into the same buffer. Enzyme concentrations in the cell ranged from 100 to 300 uM. Inhibitor concentrations in the syringe were always 8 times that of the cell concentration.

[3] = test system: soybean plants; experiment: Herbicide spray tests of transgenic HPPD soy plants (T1/T2) with multiple HPPD-inhibitor herbicides, visual injury; assay type: in vivo; details: T1 plants, V1 stage; mesotrione, tembotrione, topramezone, isoxaflutole
Protocol: T1 plants were evaluated for zygosity. Homozygous single-locus transgenic plants and their corresponding null segregants were identified and T2 true breeding seed was obtained from each. Plants were grown to the V1 to V2 growth stage and then sprayed with the commercial formulation of mesotrione, tembotrione, topramezone, and isoxaflutole. All treatments were applied with nonionic surfactant and ammonium sulfate in a spray volume of 374 L/ha. Multiple rates of each herbicide were applied so a response range could be used to compare the relative tolerance of the different herbicides as well as the relative tolerance of homozygous nulls and positives for each event. The herbicide response for individual treated plants was evaluated by comparing to untreated plants of similar genetic background. Herbicide response ratings were eight days after treatment. Visual injury was on a scale of 0 to 100% injury (0=no effect to 100=dead plant).
T1 soybean plants expressing D0223903 (SEQ ID NO: 3) driven by a synthetic promoter (as described in U.S. Pat. No. 6,072,050) were evaluated with qPCR for the presence of the transgene and null and positive segregants selected. Plants were sprayed at the V1 growth stage with the commercial formulations of mesotrione, tembotrione, topramezone, and isoxaflutole. Two rates of each herbicide were applied foliarly with nonionic surfactant and ammonium sulfate in a spray volume of 374 L/ha. The herbicide response for individual plants was determined by comparing to untreated plants of similar genetic background. Visual injury was on a scale of 0 to 100% injury (0=no effect to 100=dead plant).

B1: D0223903: shuffled maize HPPD variant, SEQ ID NO: 3; R341C mutation introduced into HPPD D0193494 (protein)
chain: MGPTPTATAAGAAVAAASAAEQAAFRLVGHRNFVRFNPRSDRFHTLAFHHVELWCADAASAAGRFSFALGAPLAARSDLSTGNSAHASLLLRSGSLSFLFTAPYAHGADAATAALPSFSAAAARRFAADHGLAVRAVALRVADAEDAFRASVAAGARPAFGPVDLGRGFRLAEVELYGDVVLRYVSYPDGAAGEPFLPGFEGVASPGAADYGLSRFDHIVGNVPELAPAAAYFAGFTGFHEFAEFTTEDVGTAESGLNSMALANNSENVLLPLNEPVHGTKRRSQIQTFLDHHGGPGVQHIALASDDVLRTLREMQARSAMGGFEFLPPPPSDYYDGVRRCAGDVLTEAQINECQELGVLVDRDDQGVLLQIFTKPVGDRPTFFLEIIQRIGCMEKDEKGQEYQKGGCGGFGKGNFSQLFKSIEDYEKSLEAKQAAAAATAQGS
modifications: HPPD variant
notes: R341C mutation introduced into HPPD D0193494
- Insensitivity parameter (ON rate ratio × OFF rate ratio) relative to that of maize wild-type HPPD ([1]; Isoxaflutole (diketonitrile)): 12.3
- Insensitivity parameter (ON rate ratio × OFF rate ratio) relative to that of maize wild-type HPPD ([1]; Sulcotrione): 3.3
- Insensitivity parameter (ON rate ratio × OFF rate ratio) relative to that of maize wild-type HPPD ([1]; Topramezone): 12.7
- Triple product (ON rate ratio × OFF rate ratio × kcat), relative to that of maize wild-type HPPD ([1]; inhibitor Isoxaflutole (diketonitrile)): 7.7
- Triple product (ON rate ratio × OFF rate ratio × kcat), relative to that of maize wild-type HPPD ([1]; inhibitor Mesotrione): 3.7
- Triple product (ON rate ratio × OFF rate ratio × kcat), relative to that of maize wild-type HPPD ([1]; inhibitor Sulcotrione): 2.1
- Triple product (ON rate ratio × OFF rate ratio × kcat), relative to that of maize wild-type HPPD ([1]; inhibitor Tembotrione): 12.1
- Triple product (ON rate ratio × OFF rate ratio × kcat), relative to that of maize wild-type HPPD ([1]; inhibitor Topramezone): 8.0
- Insensitivity parameter (ON rate ratio × OFF rate ratio) relative to that of maize wild-type HPPD ([1]; mesotrione): 6.0
- Insensitivity parameter (ON rate ratio × OFF rate ratio) relative to that of maize wild-type HPPD ([1]; tembotrione): 19.3
- Fold vs wt (KD) ([2]; Mesotrione, sites modeled: One): 3.6
- Fold vs wt (KD) ([2]; Mesotrione, sites modeled: Two): 4.9
- Fold vs wt (KD) ([2]; Tembotrione, sites modeled: Two): 7.3
- soybean tolerance to HPPD-inhibitor herbicides [3]: increased soybean tolerance
